According to paper PMC13276077:

Experiments:
[1] = target: HisMBP-MeCP2 205-257 (DIR);histone octamer (Homo sapiens;, UniProt P51608;P0C0S8;P62807;P68431;P62805 205-257;2-130;2-126;2-136;2-103, |H2B T115C;H3.1 C96S;C110A); assay: EMSA; 20 mM HEPES pH 7.5, 75 mM NaCl, 125 mM KCl, 50 uM EDTA, 2.5 mM beta-mercaptoethanol, 5% glycerol, BSA, 1.58 uM 47 bp competitor DNA (nucleosome assays); absent w
[2] = target: HisMBP-MeCP2 162-309;histone octamer (Homo sapiens;, UniProt P51608;P0C0S8;P62807;P68431;P62805 162-309;2-130;2-126;2-136;2-103, |H2B T115C;H3.1 C96S;C110A); assay: as above
[3] = target: HisMBP-MeCP2 162-309;histone octamer (Homo sapiens;Homo sapiens, UniProt P51608;P0C0S8;P62807;P68431;P62805 162-309;2-130;2-126;2-136;2-103, |H3.1 C96S;C110A); assay: as above
[4] = target: MeCP2 full-length, e2 isoform;histone octamer (Homo sapiens;, UniProt P51608;P0C0S8;P62807;P68431;P62805 1-486;2-130;2-126;2-136;2-103, |H2B T115C;H3.1 C96S;C110A); assay: as above
[5] = target: HisMBP-MeCP2 162-309;histone octamer, acidic patch mutant (Homo sapiens;Homo sapiens, UniProt P51608;P0C0S8;P62807;P68431;P62805 162-309;2-130;2-126;2-136;2-103, |H2A E61A;E91A;E92A;H2B E113A;H3.1 C96S;C110A); assay: EMSA; acidic patch mutant histone octamer; 20 mM HEPES pH 7.5, 75 mM NaCl, 125 mM KCl, 50 uM EDTA, 2.5 mM beta-mercaptoethanol, 5% glycerol, BSA, 1.58 uM 47 bp competitor DNA (nucleosome assays); absent w
[6] = target: HisMBP-MeCP2 205-257 (DIR) (Homo sapiens, UniProt P51608 205-257); assay: EMSA; 20 mM HEPES pH 7.5, 75 mM NaCl, 125 mM KCl, 50 uM EDTA, 2.5 mM beta-mercaptoethanol, 5% glycerol, BSA, 1.58 uM 47 bp competitor DNA (nucleosome assays; absent with free DNA), room temperature 30 min; details: protein: recombinant; tags: His-MBP; label: 5' 6-FAM; blunt
[7] = target: MeCP2 full-length, e2 isoform;histone octamer, tailless H3 (Homo sapiens;Homo sapiens, UniProt P51608;P0C0S8;P62807;P68431;P62805 1-486;2-130;2-126;26-136;2-103, |H3.1 del1-24;A25C;C96S;C110A); assay: EMSA; H3-tailless histone octamer; 20 mM HEPES pH 7.5, 75 mM NaCl, 125 mM KCl, 50 uM EDTA, 2.5 mM beta-mercaptoethanol, 5% glycerol, BSA, 1.58 uM 47 bp competitor DNA (nucleosome assays); absent w
[8] = target: MeCP2 R133G;histone octamer (Homo sapiens;, UniProt P51608;P0C0S8;P62807;P68431;P62805 1-486;2-130;2-126;2-136;2-103, R133G|H2B T115C;H3.1 C96S;C110A); assay: EMSA; 20 mM HEPES pH 7.5, 75 mM NaCl, 125 mM KCl, 50 uM EDTA, 2.5 mM beta-mercaptoethanol, 5% glycerol, BSA, 1.58 uM 47 bp competitor DNA (nucleosome assays); absent w
[9] = target: MeCP2 MBD;histone octamer (Homo sapiens;, UniProt P51608;P0C0S8;P62807;P68431;P62805 77-167;2-130;2-126;2-136;2-103, |H2B T115C;H3.1 C96S;C110A); assay: as above
[10] = target: MeCP2 AT-DIRmut;histone octamer (Homo sapiens;, UniProt P51608;P0C0S8;P62807;P68431;P62805 1-486;2-130;2-126;2-136;2-103, R188G;R190G;K254N;K256N;R268Q|H2B T115C;H3.1 C96S;C110A); assay: as above
[11] = target: MeCP2 full-length, e2 isoform;histone H1.0;histone octamer (Homo sapiens;Homo sapiens;, UniProt P51608;P07305;P0C0S8;P62807;P68431;P62805 1-486;1-194;2-130;2-126;2-136;2-103, ||H2B T115C;H3.1 C96S;C110A); assay: EMSA; histone H1.0 pre-bound (chromatosome); 20 mM HEPES pH 7.5, 75 mM NaCl, 125 mM KCl, 50 uM EDTA, 2.5 mM beta-mercaptoethanol, 5% glycerol, BSA, 1.58 uM 47 bp competitor DNA (nucleosome assays); absent w
HisMBP-DNMT3A 1-427 = HisMBP-DNMT3A 1-427 (UniProt Q9Y6K1 1-427); assay: EMSA; 20 mM HEPES pH 7.5, 75 mM NaCl, 125 mM KCl, 50 uM EDTA, 2.5 mM beta-mercaptoethanol, 5% glycerol, BSA, 1.58 uM 47 bp competitor DNA (nucleosome assays; absent with free DNA), room temperature 30 min; details: protein: recombinant; tags: His-MBP; label: 5' 6-FAM; blunt
HisMBP-MeCP2 272-309 = HisMBP-MeCP2 272-309 (Homo sapiens, UniProt P51608 272-309); assay: as above; details: protein: recombinant; tags: His-MBP; label: 5' 6-FAM; blunt
HisMBP-MeCP2 205-309 = HisMBP-MeCP2 205-309 (Homo sapiens, UniProt P51608 205-309); assay: as above; details: protein: recombinant; tags: His-MBP; label: 5' 6-FAM; blunt
HisMBP-MeCP2 258-309 = HisMBP-MeCP2 258-309 (Homo sapiens, UniProt P51608 258-309); assay: as above; details: protein: recombinant; tags: His-MBP; label: 5' 6-FAM; blunt
[12] = target: HisMBP-DNMT3A 1-427 K54A K56A (UniProt Q9Y6K1 1-427, K54A;K56A); assay: as above; details: protein: recombinant; tags: His-MBP; label: 5' 6-FAM; blunt
HisMBP-MeCP2 162-309 = HisMBP-MeCP2 162-309 (Homo sapiens, UniProt P51608 162-309); assay: as above; details: protein: recombinant; tags: His-MBP; label: 5' 6-FAM; blunt

Sequence of HisMBP-DNMT3A 1-427 (Q9Y6K1 1-427): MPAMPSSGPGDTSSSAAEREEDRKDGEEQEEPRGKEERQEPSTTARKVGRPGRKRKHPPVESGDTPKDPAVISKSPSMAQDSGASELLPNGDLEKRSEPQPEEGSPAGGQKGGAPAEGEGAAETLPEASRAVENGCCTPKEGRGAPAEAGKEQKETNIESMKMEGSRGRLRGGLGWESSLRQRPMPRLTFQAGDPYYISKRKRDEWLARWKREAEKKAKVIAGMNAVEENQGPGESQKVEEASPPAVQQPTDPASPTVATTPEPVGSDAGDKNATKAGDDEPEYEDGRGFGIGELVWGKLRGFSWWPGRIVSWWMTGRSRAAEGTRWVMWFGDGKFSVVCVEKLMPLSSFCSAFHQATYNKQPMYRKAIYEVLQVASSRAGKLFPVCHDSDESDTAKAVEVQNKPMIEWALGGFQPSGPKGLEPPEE
Sequence of HisMBP-DNMT3A 1-427 K54A K56A (Q9Y6K1 1-427 K54A/K56A): as the sequence (Q9Y6K1 1-427) above, with K54A, K56A counted along it

B1: N601 nucleosome core particle unmethylated (nucleosome)
DNA 1: CAGGATGTATATATCTGACACGTGCCTGGAGACTAGGGAGTAATCCCCTTGGCGGTTAAAACGCGGGGGACAGCGCGTACGTGCGTTTAAGCGGTGCTAGAGCTGTCTACGACCAATTGAGCGGCCTCGGCACCGGGATTCTCCA
DNA 2: TGGAGAATCCCGGTGCCGAGGCCGCTCAATTGGTCGTAGACAGCTCTAGCACCGCTTAAACGCACGTACGCGCTGTCCCCCGCGTTTTAACCGCCAAGGGGATTACTCCCTAGTCTCCAGGCACGTGTCAGATATATACATCCTG
Kd [1]: 1970 nM
Kd [2]: 734 nM
Kd [3]: 786 nM
binding result [4]: no binding
Kd [5]: 1830 nM

B2: 20 bp dsDNA (dsDNA)
DNA 1: AATACGCGGCCGCCCTGGAG
DNA 2: CTCCAGGGCGGCCGCGTATT
Kd [6]: 814 ± 50.1 nM

B3: N603-30 nucleosome 91 meCpA (nucleosome)
DNA 1: GAGCCACAAAATCACCGACGCTCACGGGTGCCCAGTTCGCGCGCCCACCTACCGTGTGAAGTCGTCACTCGGGCTTCTAAGTACGCTTAGCGCACGGTAGAGCGCAATCCAAGGCTAACCACCGTGCATCGATGTTGAAAGAGGCCCTCCGTCCTTATTACTTCAAGTCCCTGGGGT
DNA 2: ACCCCAGGGACTTGAAGTAATAAGGACGGAGGGCCTCTTTCAACATCGATGCACGGTGGTTAGCCTTGGATTGCGCTCTACCGTGCGCTAAGCGTACTTAGAAGCCCGAGTGACGACTTCACACGGTAGGTGGGCGCGCGAACTGGGCACCCGTGAGCGTCGGTGATTTTGTGGCTC
modifications: asymmetric meCpA at 91
Kd [4]: 61.4 nM
Kd [7]: 47 nM

B4: N603-30 nucleosome (single 30 bp linker) (nucleosome)
DNA 1: B3 DNA 1
DNA 2: B3 DNA 2
Kd [4]: 102 nM
Kd [7]: 86.9 nM

B5: 16-N603-30 nucleosome unmethylated (nucleosome)
DNA 1: GAGCCACAAAATCACCGACGCTCACGGGTGCCCAGTTCGCGCGCCCACCTACCGTGTGAAGTCGTCACTCGGGCTTCTAAGTACGCTTAGCGCACGGTAGAGCGCAATCCAAGGCTAACCACCGTGCATCGATGTTGAAAGAGGCCCTCCGTCCTTATTACTTCAAGTCCCTGGGGTACCCGTTTCACTGCCA
DNA 2: TGGCAGTGAAACGGGTACCCCAGGGACTTGAAGTAATAAGGACGGAGGGCCTCTTTCAACATCGATGCACGGTGGTTAGCCTTGGATTGCGCTCTACCGTGCGCTAAGCGTACTTAGAAGCCCGAGTGACGACTTCACACGGTAGGTGGGCGCGCGAACTGGGCACCCGTGAGCGTCGGTGATTTTGTGGCTC
Kd [1]: 298 nM
Kd [2]: 94.6 nM
Kd [8]: 188 nM
Kd [9]: 716 nM
Kd [4]: 94.9 nM
Kd [10]: 41.5 nM

B6: 15-N601-15 nucleosome unmethylated (nucleosome)
DNA 1: ATGGAACACATTGCACAGGATGTATATATCTGACACGTGCCTGGAGACTAGGGAGTAATCCCCTTGGCGGTTAAAACGCGGGGGACAGCGCGTACGTGCGTTTAAGCGGTGCTAGAGCTGTCTACGACCAATTGAGCGGCCTCGGCACCGGGATTCTCCAGGGCGGCCGCGTATT
DNA 2: AATACGCGGCCGCCCTGGAGAATCCCGGTGCCGAGGCCGCTCAATTGGTCGTAGACAGCTCTAGCACCGCTTAAACGCACGTACGCGCTGTCCCCCGCGTTTTAACCGCCAAGGGGATTACTCCCTAGTCTCCAGGCACGTGTCAGATATATACATCCTGTGCAATGTGTTCCAT
Kd [1]: 581 nM
Kd [2]: 240 nM
Kd [8]: 596 nM
Kd [9]: 1000 nM
Kd [4]: 220 nM
Kd [10]: 85.2 nM
Kd [5]: 217 nM
binding result [11]: no binding

B7: 40 bp dsDNA (dsDNA)
DNA 1: AATACGCGGCCGCCCTGGAGAATCCCGGTGCCGAGGCCGC
DNA 2: GCGGCCTCGGCACCGGGATTCTCCAGGGCGGCCGCGTATT
Kd (HisMBP-DNMT3A 1-427): 87.8 ± 5.2 nM
Kd [6]: 216 ± 9.2 nM
binding result (HisMBP-MeCP2 272-309): no binding
Kd (HisMBP-MeCP2 205-309): 77.5 ± 4.8 nM
Kd (HisMBP-MeCP2 258-309): 167 ± 8.5 nM
Kd [12]: 367 ± 27.5 nM
Kd (HisMBP-MeCP2 162-309): 31.6 ± 1.7 nM
